Test results as given in the supplement of paper PMC10567573.

B1: KCNG1 (parent)
chain: AVNLSVSTLPSLREEEEQVRAHAP
B2: KCTD10 (parent)
chain: SSKEEQKLIATSNKPAVKLLYNRS

Variants of: B1
Experiment: protein stability index of a GFP-peptide fusion (GPS, HEK-293T) (PSI 1-6); higher = more stable
Conditions: c terminus: a fixed tail appended
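Further: lentivirally expressed fusions sorted by FACS into six bins by GFP to DsRed ratio, PSI derived from sequencing read proportions per bin multiplied by bin number.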

Protein stability index: each site, then its substitutions
E17: P 4.71 | Q 4.69 | Y 3.6 | N 4.73 | V 4.38 | T 4.32 | L 4.11 | W 3.08 | R 4.61 | M 4.46 | S 4.61
Q18: V 4.55 | L 5 | Y 4.42 | T 4.99 | R 4.55 | N 4.95 | S 5.26 | A 4.75 | P 5.04 | C 4.98 | F 4.17 | W 4.05 | G 5.17 | I 4.82 | K 4.75 | H 4.67 | M 4.77 | D 5.2 | E 5.57
H22: K 5.49 | R 5.22 | W 3.02 | V 4.76 | F 4.49 | Y 4.87 | P 4.62 | Q 4.57 | S 5.49 | A 5.11 | D 5.01 | L 4.83 | N 5.26 | E 5.62 | C 4.92 | G 5.29 | I 4.45 | T 4.91 | M 5.28
V19: R 4.73 | P 5.36 | Q 5.24 | I 5.15 | D 5.33 | A 4.98 | L 5.14 | E 5.3 | S 5.33 | G 5.21 | N 5.09 | H 5.08 | F 4.62 | W 4.46 | C 4.84 | M 4.85 | K 5.07 | T 4.9 | Y 4.71
A23: L 5.02 | W 4.32 | C 4.86 | N 5.26 | T 4.87 | F 4.1 | D 5.3 | R 5.04 | H 4.87 | M 4.83 | V 5.07 | Q 5.27 | K 5.1 | I 4.82 | E 4.82 | Y 4.3 | P 5.29 | S 5.2 | G 5.71
P24: G 5.37 | K 4.92 | W 4 | E 5.61 | Y 4.41 | S 4.84 | L 4.94 | A 5.57 | T 5.36 | D 5.57 | N 5.34 | R 5.08 | Q 5.23 | V 5.11 | I 4.58 | M 4.55 | H 5.41 | F 4.42 | C 5.04
R20: I 5.14 | K 5.17 | N 5.3 | P 5.17 | C 4.79 | Q 5.12 | H 5.06 | V 4.94 | S 4.75 | G 5.48 | Y 4.75 | E 5.63 | M 5.2 | W 4.55 | D 5.96 | T 5.27 | F 4.48 | A 5.56 | L 5.37
A21: W 3.35 | G 5.13 | R 4.99 | L 4.71 | T 4.54 | Q 5.25 | M 4.27 | I 4.11 | N 4.28 | D 5.32 | V 4.36 | C 4.74 | F 3.75 | K 4.64 | E 4.52 | P 4.97 | Y 3.93 | S 4.96 | H 4.68

Variants of: B2
Experiment: as above
Conditions: c terminus: a fixed tail appended

Protein stability index: each site, then its substitutions
Q6: T 4.44 | M 3.56 | L 3.59 | K 3.1 | W 2.79 | G 3.8 | N 3.96 | H 4.08 | F 3.15 | V 3.6 | C 4.15 | R 3.93 | E 4.52 | P 4 | D 4.5 | I 3.33 | A 4.23 | S 3.86 | Y 4.01
I9: A 3.97 | W 3.93 | H 3.81 | E 4.72 | G 4.54 | L 3.98 | F 4.08 | C 3.91 | P 4.69 | Q 4.31 | K 4.39 | S 4.34 | Y 4.41 | R 4.33 | D 4.74 | T 4.18 | M 3.96 | N 4.36 | V 4.34
L8: S 4.62 | D 4.88 | V 4.66 | A 4.88 | M 4.43 | Q 4.6 | I 4.32 | R 4.34 | P 4.88 | F 3.51 | T 4.47 | Y 4.02 | C 4.42 | W 3.79 | E 4.96 | K 4.75 | N 4.31 | G 4.51 | H 4.46
E4: K 3.69 | Y 2.83 | S 3.99 | C 3.55 | H 3.09 | T 3.26 | W 3.24 | D 4.01 | L 3.52 | I 3.06 | G 3.46 | P 3.64 | V 3.5 | Q 4.06 | A 3.3 | M 2.82 | R 3.66 | N 3.87 | F 3.6
A10: F 3.44 | M 3.51 | Y 3.65 | C 3.88 | T 4.39 | P 3.78 | H 4.2 | I 2.74 | S 4.01 | W 3.51 | R 3.88 | Q 4.27 | N 4.41 | L 3.73 | G 3.86 | V 3.45 | E 4.51 | D 3.78 | K 4.15
E5: H 3.78 | G 1.71 | C 3.34 | Q 3.83 | K 3.35 | R 3.59 | V 2.8 | P 3.56 | N 3.7 | M 2.97 | I 2.97 | T 3.82 | S 3.87 | D 4.13 | A 3.38 | Y 2.97 | W 1.79 | L 2.83 | F 2.26
K3: L 4.07 | E 4.16 | W 3.93 | T 4.18 | S 3.58 | V 3.96 | Q 4.25 | G 3.32 | R 3.97 | N 4.04 | A 4.67 | H 4.23 | P 4.06 | I 3.91 | C 3.86 | F 3.83 | Y 3.26 | M 4.08 | D 4.5
K7: V 3.68 | M 3.3 | R 3.92 | I 3.28 | G 4.45 | Q 4.25 | A 4.1 | F 3.02 | H 3.85 | T 3.87 | Y 3.29 | P 4.39 | L 3.21 | S 3.55 | D 4.49 | N 4.32 | W 2.87 | C 3.86 | E 4.4
S1: P 3.98 | H 4.21 | R 3.8 | I 3.56 | N 4.32 | W 3.08 | A 3.87 | K 4.12 | Y 3.18 | E 4.49 | G 3.96 | V 3.84 | C 3.82 | T 4.1 | L 3.69 | M 4.26 | D 3.9 | Q 4.22 | F 3.6
S2: R 4.07 | W 3.26 | E 4.43 | D 4.55 | I 3.88 | T 3.86 | H 3.99 | K 3.97 | L 3.79 | Y 3.56 | C 2.83 | N 4.16 | Q 4.25 | P 4.45 | G 4.25 | F 3.57 | M 4.13 | A 4.54 | V 3.5
